The values that follow come from paper PMC7085345 (The Biochemical journal, 2019).

Read-outs that look alike come from different tables or passages of the source.

Common to all, as to assay: FRET or BRET
(In general: In BRET a luciferase serves as donor, and the signal depends on an acceptor being close.)

Data set [1] concerns the molecule itself.
Data set [2] concerns the molecule itself. The source holds these as a separate data set.
Data set [3] concerns the molecule itself. The source holds these as a separate data set.
Data set [4] deals with the molecule itself. This is another data set of the same source.
Data set [5] concerns the molecule itself. This is another data set of the same source.

B1: CYP2E1-BODIPY(1:2): N-terminally truncated (Δ3–20), C-terminally His-tagged CYP2E1 labeled with BODIPY 577/618 maleimide at 1:2 protein-to-label ratio (enzyme, human, UniProt P05181 1-493, looked up)
chain: MSSMWRQVHSSWNLPPGPFPLPIIGNLFQLELKNIPKSFTRLAQRFGPVFTLYVGSQRMVVMHGYKAVKEALLDYKDEFSGRGDLPAFHAHRDRGIIFNNGPTWKDIRRFSLTTLRNYGMGKQGNESRIQREAHFLLEALRKTQGQPFDPTFLIGCAPCNVIADILFRKHFDYNDEKFLRLMYLFNENFHLLSTPWLQLYNNFPSFLHYLPGSHRKVIKNVAEVKEYVSERVKEHHQSLDPNCPRDLTDCLLVEMEKEKHSAERLYTMDGITVTVADLFFAGTETTSTTLRYGLLILMKYPEIEEKLHEEIDRVIGPSRIPAIKDRQEMPYMDAVVHEIQRFITLVPSNLPHEATRDTIFRGYLIPKGTVVVPTLDSVLYDNQEFPDPEKFKPEHFLNENGKFKYSDYFKPFSTGKRVCAGEGLARMELFLLLCAILQHFNLKPLVDPKDIDLSPIHIGFGCIPPRYKLCVIPRS
modifications: BODIPY 577/618 maleimide on cysteines, two molar equivalents (presumably Cys488 and Cys261, Cys268 and/or Cys480)
With B1, the “(Lipid/CYP2E1)50%” value in “FRET or BRET [1]” is 393 lipid-to-P450 molar ratio; in the data set “FRET or BRET [2]” it was 4320 lipid-to-P450 molar ratio; in the data set “FRET or BRET [3]” it was 383 lipid-to-P450 molar ratio; in the data set “FRET or BRET [4]” it was 5890 lipid-to-P450 molar ratio; in the data set “FRET or BRET [5]”, 2440 lipid-to-P450 molar ratio.
